# Patent US20260265394A1 (CARTESIAN THERAPEUTICS, published 2026)
# B1: anti-BCMA scFv1 (as CAR), Example 16 (scFv)
# scFv: DIVLTQSPPSLAMSLGKRATISCRASESVTILGSHLIHWYQQKPGQPPTLLIQLASNVQTGVPARFSGSGSRTDFTLTIDPVEEDDVAVYYCLQSRTIPRTFGGGTKLEIKGSTSGSGKPGSGEGSTKGQIQLVQSGPELKKPGETVKISCKASGYTFTDYSINWVKRAPGKGLKWMGWINTETREPAYAYDFRGRFAFSLETSASTAYLQINNLKYEDTATYFCALDYSYAMDYWGQGTSVTVSS
# Key:
# [1] = target: T1, soluble BCMA (UniProt Q02223 1-54, limits assumed); test: apparent affinity of anti-BCMA CAR to soluble BCMA (FIG. 10A); method not described
# T1 sequence (looked up): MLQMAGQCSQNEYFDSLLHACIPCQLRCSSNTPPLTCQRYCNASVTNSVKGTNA
# [2] = target: T1, soluble BCMA; test: titration, '% of Max Binding' against 'Log Conc (nM)'; apparent affinity of anti-BCMA CAR to soluble BCMA; the text does not describe the assay
binder,measurement,setting,value
B1,Kd,[1],3.2 nM
same,EC50 (read off the curve),[2],~10 nM
